{"source": "patent US20140017242A1", "about": "“ANTI-BRADYKININ B2 RECEPTOR (BKB2R) MONOCLONAL ANTIBODY” (Diamedica, Inc., priority 2010, published 2014)", "molecules": {"B1": {"name": "5F12G1: murine monoclonal anti-BKB2R antibody (IgG2b,κ), VH comprising SEQ ID NO:1, VL comprising SEQ ID NO:2 (antibody, listed as Mus musculus, V domains shown)", "VH": "EVKLEESGGGLVQPGGSMKLSCVVSGFTFSDYWMSWVRHSPEMGLEWVAEIRLKSDNYATHYAESVKGRFTISRDDSKSRLYLQINSLRGEDTGIYYCTRDYYAMEYWGQGTSVTVSS", "VL": "DVVMTQTPLSLPVSLGDQASISCRSSQTIVHSNGKTYLEWYLQKPGQSPKLLIYKVSNRFSGVPDRFSGSGSGTEFTLKISRVETEDLGVYYCFQASHVPYTFGGGTKLEIK"}}, "key": {"NUGC-4": {"test_system": "NUGC-4", "experiment": "MTT Cell Proliferation Assay, NUGC-4", "format": "cell-based, human", "details": "120 hours of exposure", "source_text": "This Example describes characterization of the cytotoxic activity of herein described anti-BKB2R monoclonal antibodies against a panel of cancer cell lines. BxPC-3 is a human adenocarcinoma cell line originally isolated from the pancreas (pancreatic cancer) (ATCC # CRL-1687; Tan et al., Cancer Invest. 4: 15-23, 1986. PubMed: 3754176). MV-4-11 is a human biphenotypic B myelomonocytic leukemia (mixed-lineage leukemia, MLL-AF4) cell line originally isolated from the peripheral blood (ATCC # CRL-959; Lange et al., Blood 70: 192-199, 1987. PubMed: 3496132). Hep G2 is a human hepatocellular carcinoma cell line isolated from the liver (liver cancer) (ATCC # HB-8065; Aden et al., Nature 282: 615-616, 1979. PubMed: 233137). RS4;11 is a human acute lymphoblastic leukemia (mixed-lineage leukemia, MLL-AF4) cell line isolated from the bone marrow (ATTC # CRL-1873) Stong et al., Blood 65: 21-31, 1985. PubMed: 3917311). HT-29 is a human colorectal adenocarcinoma (ATTC # HTB-38) cell line isolated from the colon (colon cancer). Fogh et al., J. Natl. Cancer Inst. 58: 209-214, 1977. PubMed: 833871). NUGC-4 is a human stomach carcinoma isolated from the stomach paragastiric lymph node (JCRB # JCRB0834; Akiyama et al., Jpn. J. Surg., 18: 438-446, 1988). […]\nThe anti-proliferative activity of test compounds against the indicated cell lines was evaluated in vitro using the ATCC's MTT Cell Proliferation Assay (Catalog No. 30-1010K). After the 120 hour incubation with drug (e.g., anti-BKB2R mAb or cisplatin), cell proliferation was measured by addition of MTT reagent to each well and incubation for an additional 4 hrs. […] Optical absorbance (570 nm) of the test wells was measured and then quantitated relative to control wells that received no drug. Results were expressed as percent inhibition versus compound concentration and graphed, as shown in FIGS. 19-25, for cell lines BxPC-3, MV-4;11, HepG2, RS-4;11, HT-29, NUGC-4, and PC-3, respectively."}, "ZDF fa/fa rats": {"test_system": "ZDF fa/fa rats", "experiment": "21-day ZDF fa/fa study: tail cuff blood pressure and heart rate", "format": "in vivo, rat", "experimental": "Animals. Male ZDF fa/fa rats were obtained from CRL (Kingston, N.Y.). Upon arrival, rats were seven weeks of age. The rats were housed individually per cage in a room with a photo cycle of 12 hours of light and 12 hours of dark and an ambient temperature of 70-72° F. and fed on regular rodent diet and water ad libitum. At the age of eleven weeks, rats were divided into six groups (Table 5) of eight rats per group based on fasting blood glucose levels. A sub-group of four rats per group was maintained in parallel to the main groups and was dosed similarly for twenty-one days for a hyperinsulinemic-euglycemic clamp study. […]\nAn oral glucose tolerance test (OGTT) was performed on Day 0, 7, 14 and 21 for each group of the study. […] Body weight, food and water intake were measured twice a week. Blood pressure and heart rates were monitored on Day 0, 7, 14 and 21 using a non-invasive tail cuff method (with five readings per rat taken and then averaged). […] Glycated (Glycosylated) hemoglobin (HbA1c) was measured at the end of the study. […]\nBlood pressure measurements were performed using a blood pressure monitor and data acquisition software. […] The VPR sensor utilized a differential pressure transducer to non-invasively measure the blood volume in the tail, and determined systolic blood pressure, diastolic blood pressure, and heart rate. […]"}}}
{"molecule": "B1", "values": [{"measurement": "EC 50 Values (ng/ml) NUGC-4", "setting": "NUGC-4", "result": 47000, "unit": "ng/mL"}, {"measurement": "increase in systolic blood pressure from baseline", "setting": "ZDF fa/fa rats; 0.2 mg/kg s.c. every 3 days (highest dose), Day 0 to Day 21", "result": "0.12+/−4.4 mm Hg"}, {"measurement": "systolic, diastolic blood pressure and heart rate measurements relative to the control group MG2b-57", "setting": "ZDF fa/fa rats; all 5F12G1 doses, day 21", "result": "below the control group"}]}
